Where no end group is shown, it is not given here.

This note sets out measurements from patent US20260242478A1 (published 2026).

For experiment [1], the target named is T1, Anti-PSMA Fab (SEQ ID NOs: 19, 20).
T1 construct: Biotinylated and captured on neutravidin coated plates in the phage ELISA; also called 006 PSMA Fab
Kind of experiment: phage binding ELISA; Fab-coated wells pre-incubated with PSMA antigen as competitor. In general terms: An ELISA detects its analyte on a solid surface through an enzyme-linked reagent.
Experimental: (§1) Clonal phage were harvested as crude supernatants and screened via standard ELISAs. […] Prior to the addition of clonal phage. wells were incubated with blocking buffer and PSMA antigen or blocking buffer alone. Without washing or aspirating, clonal phage supernatants were then added to the wells and incubated for a short time. Wells were then washed followed by detection of bound phage using a horse radish conjugated anti-M13 antibody.

The target is the same in experiment [2]. Kind of experiment: phage binding ELISA; biotinylated Fab on neutravidin plate, clonal phage detected with anti-M13 HRP.
Experimental: as §1
In experiment [3] the target is T2, Anti-PSMA Fab (SEQ ID NOs: 19, 20).
T2 construct: Biotinylated and captured on neutravidin coated plates in the phage ELISA; also called 006 PSMA Fab
In words: phage binding ELISA; biotinylated PSMA Fab on neutravidin plate, clonal phage detected with anti-M13-HRP.
Experimental: as §1

Experiment [4] has the same target. In words: phage binding ELISA; Fab-coated wells pre-incubated with PSMA antigen as competitor, anti-M13-HRP detection.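 Also: clonal phage supernatants screened, with reference wells given blocking buffer only (no PSMA antigen) before phage were added for a brief incubation.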
Experimental: as §1
The target in experiment [5] is T3, Anti-PSMA Fab (SEQ ID NOs: 19, 20).
T3 construct: Biotinylated and captured on neutravidin coated plates in the phage ELISA; also called 006 PSMA Fab
Kind of experiment: phage binding ELISA; clonal phage on plate-captured biotinylated PSMA Fab, anti-M13 HRP detection.
Experimental: as §1

Experiment [6] shares this target. In words: phage binding ELISA; plate-captured PSMA Fab pre-incubated with PSMA antigen as competitor, anti-M13 HRP detection.
Experimental: as §1
Experiment [7] addresses T4, Anti-PSMA Fab (SEQ ID NOs: 19, 20).
T4 construct: also called 006 PSMA Fab
Kind of experiment: phage binding ELISA; PSMA Fab on plate pre-incubated with PSMA antigen as competitor, anti-M13 HRP detection.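 Also: crude clonal phage supernatants added without washing to wells preincubated with PSMA in blocking buffer, compared with wells receiving blocking buffer only, then bound phage detected.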
Experimental: as §1

Experiment [8] has the same target. In words: phage binding ELISA; biotinylated PSMA Fab on neutravidin plate, clonal phage supernatant, anti-M13 HRP detection.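 Also: wells were preincubated with blocking buffer either containing PSMA antigen or without it before crude phage supernatant was added, briefly incubated, then washed prior to detection.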
Experimental: as §1

B1: Phage-2273 (peptide)
peptide: GINWCIPPWMCQSE
Consider B1, for which the “Anti-PSMA Fab signal in the presence of PSMA” value (from here on “Anti-PSMA Fab signal”) in experiment [1] turned out to be 0.119. In addition, the “Anti-PSMA Fab (SEQ ID NOs: 19, 20) signal” value in experiment [2] is 1.52.

B2: Phage-2190 (peptide)
peptide: EHHWCIPKWMCNEV
notes: tested as crude clonal phage supernatant
In the case of B2, in experiment [3], the “Anti-PSMA Fab (SEQ ID NOs: 19, 20) signal” value came to 1.63. Further, the “Anti-PSMA Fab signal” value in experiment [4] was 0.0711.

B3: Phage-2287 (peptide)
peptide: VEKWCTPRWMCEGF
notes: as for B2
With B3, the “Anti-PSMA Fab (SEQ ID NOs: 19, 20) signal” value in experiment [5] amounted to 1.51. For the same molecule, the “Anti-PSMA Fab signal” value in experiment [6] amounted to 0.0841.

B4: Phage-2290 (peptide)
peptide: VDKQCRPAWMCEIW
notes: as for B2
On to B4, for which, in experiment [5], the “Anti-PSMA Fab (SEQ ID NOs: 19, 20) signal” value is 1.5. Also, the “Anti-PSMA Fab signal” value in experiment [6] is 0.0653.

B5: Phage-2259 (peptide)
peptide: DMRWCIPAWMCEDR
For B5, the “Anti-PSMA Fab signal” value in experiment [7] is 0.0623. Further, the “Anti-PSMA Fab (SEQ ID NOs: 19, 20) signal” value in experiment [8] was found to be 1.54.

B6: Phage-2271 (peptide)
peptide: HQNWCIPAWMCHGM
Take B6: in experiment [1], the “Anti-PSMA Fab signal” value amounted to 0.0592. For the same molecule, in experiment [2], the “Anti-PSMA Fab (SEQ ID NOs: 19, 20) signal” value was found to be 1.53.

B7: Phage-2285 (peptide)
peptide: EPKWCIPQWMCERF
notes: as for B2
For the molecule B7, in experiment [5], the “Anti-PSMA Fab (SEQ ID NOs: 19, 20) signal” value came out at 1.51. In addition, the “Anti-PSMA Fab signal” value in experiment [6] came out at 0.0654.

B8: Phage-2264 (peptide)
peptide: ALKWCIPDWMCSQP
For the molecule B8, the “Anti-PSMA Fab signal” value in experiment [7] was 0.0749. The “Anti-PSMA Fab (SEQ ID NOs: 19, 20) signal” value in experiment [8] is 1.54.

B9: Phage-2274 (peptide)
peptide: YTNWCIPSWMCEGF
Consider B9, for which, in experiment [1], the “Anti-PSMA Fab signal” value stood at 0.0789. The “Anti-PSMA Fab (SEQ ID NOs: 19, 20) signal” value in experiment [2] turned out to be 1.52.

B10: Phage-2270 (peptide)
peptide: VVKWCSPPWMCEYF
Take B10: the “Anti-PSMA Fab signal” value in experiment [1] stood at 0.0886. Moreover, in experiment [2], the “Anti-PSMA Fab (SEQ ID NOs: 19, 20) signal” value stood at 1.53.

B11: Phage-2266 (peptide)
peptide: EMHWCIPAWMCPDG
With B11, the “Anti-PSMA Fab signal” value in experiment [7] came out at 0.0572. The “Anti-PSMA Fab (SEQ ID NOs: 19, 20) signal” value in experiment [8] was 1.54.

B12: Phage-2283 (peptide)
peptide: GGKWCKPSWMCFGM
notes: as for B2
For B12, in experiment [5], the “Anti-PSMA Fab (SEQ ID NOs: 19, 20) signal” value turned out to be 1.51. In experiment [6], the “Anti-PSMA Fab signal” value turned out to be 0.108.

B13: Phage-2280 (peptide)
peptide: FAILCKPMWMCEHI
Consider B13, for which the “Anti-PSMA Fab signal” value in experiment [1] came to 0.0895. The “Anti-PSMA Fab (SEQ ID NOs: 19, 20) signal” value in experiment [2] amounted to 1.51.

B14: Phage-2275 (peptide)
peptide: GEKWCIPSWMCEIT
For B14, the “Anti-PSMA Fab signal” value in experiment [1] is 0.0796. Also, the “Anti-PSMA Fab (SEQ ID NOs: 19, 20) signal” value in experiment [2] was determined as 1.52.

B15: Phage-2257 (peptide)
peptide: MEMWCRPAWMCAHS
modifications: cysteine pairing not given here; also: displayed on phage, fused to pIII
As for B15, the “Anti-PSMA Fab signal” value in experiment [7] is 0.0767. In addition, the “Anti-PSMA Fab (SEQ ID NOs: 19, 20) signal” value in experiment [8] is 1.54.

B16: Phage-2279 (peptide)
peptide: IPRMCTPAWMCEWS
With B16, the “Anti-PSMA Fab signal” value in experiment [1] stood at 0.0738. The “Anti-PSMA Fab (SEQ ID NOs: 19, 20) signal” value in experiment [2] came to 1.51.

B17: Phage-2263 (peptide)
peptide: YSHLCIPSWMCSWT
Turning to B17, in experiment [7], the “Anti-PSMA Fab signal” value amounted to 0.111. For the same molecule, in experiment [8], the “Anti-PSMA Fab (SEQ ID NOs: 19, 20) signal” value came out at 1.54.

B18: Phage-2255 (peptide)
peptide: VELLCKPPWMCSGL
On to B18, for which the “Anti-PSMA Fab signal” value in experiment [7] is 0.0931. Besides, the “Anti-PSMA Fab (SEQ ID NOs: 19, 20) signal” value in experiment [8] came out at 1.54.

B19: Phage-2191 (peptide)
peptide: VDNWCVPRWMCDGF
notes: as for B2
B19: the “Anti-PSMA Fab (SEQ ID NOs: 19, 20) signal” value in experiment [3] came out at 1.63. The “Anti-PSMA Fab signal” value in experiment [4] was 0.0922.

B20: Phage-2258 (peptide)
peptide: MMKWCTPEWMCAMV
modifications: cysteine pairing not given here; also: displayed on phage, fused to pIII
For B20, the “Anti-PSMA Fab signal” value in experiment [7] stood at 0.0753. The “Anti-PSMA Fab (SEQ ID NOs: 19, 20) signal” value in experiment [8] was 1.54.

B21: Phage-2288 (peptide)
peptide: HVKWCTPAWMCVSN
notes: as for B2
Take B21: in experiment [5], the “Anti-PSMA Fab (SEQ ID NOs: 19, 20) signal” value was found to be 1.51. Moreover, the “Anti-PSMA Fab signal” value in experiment [6] stood at 0.079.

B22: Phage-2260 (peptide)
peptide: VDRWCIPEWMCNEL
In the case of B22, the “Anti-PSMA Fab signal” value in experiment [7] is 0.084. In experiment [8], the “Anti-PSMA Fab (SEQ ID NOs: 19, 20) signal” value came to 1.54.

B23: Phage-2267 (peptide)
peptide: ITKLCTPPWMCTMV
As for B23, the “Anti-PSMA Fab signal” value in experiment [7] was 0.0558. The “Anti-PSMA Fab (SEQ ID NOs: 19, 20) signal” value in experiment [8] came to 1.53.

B24: Phage-2253 (peptide)
peptide: NERWCIPSWMCQEA
For the molecule B24, the “Anti-PSMA Fab signal” value in experiment [7] is 0.0574. Besides, in experiment [8], the “Anti-PSMA Fab (SEQ ID NOs: 19, 20) signal” value was 1.55.

B25: Phage-2262 (peptide)
peptide: PNIWCTPLWMCEGL
Regarding B25, the “Anti-PSMA Fab signal” value in experiment [7] was found to be 0.0772. The “Anti-PSMA Fab (SEQ ID NOs: 19, 20) signal” value in experiment [8] was determined as 1.54.

B26: Phage-2261 (peptide)
peptide: TEKWCIPAWMCQVS
For B26, in experiment [7], the “Anti-PSMA Fab signal” value amounted to 0.0738. In experiment [8], the “Anti-PSMA Fab (SEQ ID NOs: 19, 20) signal” value worked out at 1.54.

B27: Phage-2272 (peptide)
peptide: WDMRCTPIWMCEGF
With B27, in experiment [1], the “Anti-PSMA Fab signal” value came to 0.0882. Also, the “Anti-PSMA Fab (SEQ ID NOs: 19, 20) signal” value in experiment [2] is 1.52.

B28: Phage-2282 (peptide)
peptide: AVKLCTPMWMCMGF
On to B28, for which the “Anti-PSMA Fab signal” value in experiment [1] amounted to 0.0984. Further, the “Anti-PSMA Fab (SEQ ID NOs: 19, 20) signal” value in experiment [2] came out at 1.51.

B29: Phage-2277 (peptide)
peptide: IIKWCKPLWMCESI
Regarding B29, the “Anti-PSMA Fab signal” value in experiment [1] was determined as 0.104. The “Anti-PSMA Fab (SEQ ID NOs: 19, 20) signal” value in experiment [2] is 1.52.

B30: Phage-2276 (peptide)
peptide: LEKWCTPPWMCMGF
As for B30, the “Anti-PSMA Fab signal” value in experiment [1] stood at 0.0948. Further, the “Anti-PSMA Fab (SEQ ID NOs: 19, 20) signal” value in experiment [2] turned out to be 1.52.

B31: Phage-2286 (peptide)
peptide: AEKWCIPPWMCVND
notes: as for B2
Regarding B31, the “Anti-PSMA Fab (SEQ ID NOs: 19, 20) signal” value in experiment [5] was 1.51. For the same molecule, in experiment [6], the “Anti-PSMA Fab signal” value turned out to be 0.0683.

B32: Phage-2268 (peptide)
peptide: AENWCRPSWMCEGF
Turning to B32, the “Anti-PSMA Fab signal” value in experiment [1] stood at 0.0717. Moreover, the “Anti-PSMA Fab (SEQ ID NOs: 19, 20) signal” value in experiment [2] came out at 1.53.

B33: Phage-2254 (peptide)
peptide: PAKWCIPMWMCQVD
In the case of B33, the “Anti-PSMA Fab signal” value in experiment [7] amounted to 0.0779. In addition, in experiment [8], the “Anti-PSMA Fab (SEQ ID NOs: 19, 20) signal” value is 1.55.

B34: Phage-2281 (peptide)
peptide: MPKWCIPTWMCEST
In the case of B34, the “Anti-PSMA Fab signal” value in experiment [1] stood at 0.054. For the same molecule, in experiment [2], the “Anti-PSMA Fab (SEQ ID NOs: 19, 20) signal” value amounted to 1.51.

B35: Phage-2289 (peptide)
peptide: ELNWCTPPWMCNPM
notes: as for B2
Take B35: the “Anti-PSMA Fab (SEQ ID NOs: 19, 20) signal” value in experiment [5] came to 1.5. In addition, the “Anti-PSMA Fab signal” value in experiment [6] was determined as 0.0786.

B36: Phage-2265 (peptide)
peptide: GDRWCIPEWMCGVI
As to B36, the “Anti-PSMA Fab signal” value in experiment [7] is 0.0664. Further, in experiment [8], the “Anti-PSMA Fab (SEQ ID NOs: 19, 20) signal” value stood at 1.54.

B37: Phage-2256 (peptide)
peptide: PVNWCKPPWMCEMW
Regarding B37, the “Anti-PSMA Fab signal” value in experiment [7] stood at 0.087. Further, in experiment [8], the “Anti-PSMA Fab (SEQ ID NOs: 19, 20) signal” value worked out at 1.54.

B38: Phage-2278 (peptide)
peptide: IEKWCIPQWMCSAA
For B38, in experiment [1], the “Anti-PSMA Fab signal” value came to 0.0739. In addition, the “Anti-PSMA Fab (SEQ ID NOs: 19, 20) signal” value in experiment [2] worked out at 1.52.

B39: Phage-2284 (peptide)
peptide: MINWCTPAWMCTGF
notes: as for B2
On to B39, for which the “Anti-PSMA Fab (SEQ ID NOs: 19, 20) signal” value in experiment [5] was found to be 1.51. The “Anti-PSMA Fab signal” value in experiment [6] came out at 0.101.

B40: Phage-2269 (peptide)
peptide: FAKWCTPQWMCSAM
As to B40, in experiment [1], the “Anti-PSMA Fab signal” value worked out at 0.225. The “Anti-PSMA Fab (SEQ ID NOs: 19, 20) signal” value in experiment [2] was 1.53.
